B1: anti-GPC-3 bi-specific T cell-engaging antibody clone 1C4 (bispecific antibody)
VH: QVQLVQSGGGLVKPGRSLRLSCTASGFTFGDYAMHWVRQAPGKGLEWVAVISYDGSNKYYADSVKGRFTISRDNSKNTLYLQMNSLRAEDTAVYYCARDYGDYYRPYGMDVWGQGTT
VL: DIQMTQSPSTLSASVGDRVTITCRASQSISKWLAWYQHKPGKAPKVLIYKASTLQSGVPSRFSGSGSGTEFTLTISSLQPEDFATYYCQQLNSYPLTFGGGTK
scFv: DVQLVQSGAEVKKPGASVKVSCKASGYTFTRYTMHWVRQAPGQGLEWIGYINPSRGYTNYADSVKGRFTITTDKSTSTAYMELSSLRSEDTATYYCARYYDDHYCLDYWGQGTTVTVSSGEGTSTGSGGSGGSGGADDIVLTQSPATLSLSPGERATLSCRASQSVSYMNWYQQKPGKAPKRWIYDTSKVASGVPARFSGSGSGTDYSLTINSLEAEDAATYYCQQWSSNPLTFGGGTKVEIK
notes: The Fab region of one arm of the IgG is replaced by the anti-CD3 scFv; knob-in-hole and LALA mutations in the Fc; also called 1C4 bi-specific
B2: anti-GPC-3 bi-specific T cell-engaging antibody clone 5C4 (bispecific antibody)
VH: QVQLQESGGGLVKPGGSLRLSCAASGFTFSSYSMNWVRQAPGKGLEWVAVISYDGSNKYYADSVKGRFTISRDNSKNTLYLQMNSLRTEDTAVYYCARGAGPFTGFNWFDPWGQGTL
VL: EIVLTQSPATLSVSPGERATLSCRASQSVDSYLAWYQQKPGQAPRLLIYSASTRATGIPARFSGTGSGTEFTLTISSLQSEDFAVYYCQQYKRWPTWTFGLGTR
scFv: B1 scFv
notes: The Fab region of one arm of the IgG is replaced by the anti-CD3 scFv; knob-in-hole and LALA mutations in the Fc; also called 5C4 bi-specific
B3: anti-GPC-3 bi-specific T cell-engaging antibody clone 1D2 (bispecific antibody)
VH: EVQLVQSGAEVKKPGSSVKVSCKASGGTFSSYAISWVRQAPGQGLEWMGGIIPIFGTANYAQKFQGRVTITADKSTSTAYMELSSLRSEDTAVYYCAREWQQQLVPLGYMDVWGKGTT
VL: ETTLTQSPGTLSLSPGERATLSCRASHSVSSNFLAWYQQKPGQAPRLLIYAASSRTTGVPDRFSGSGSGTDFTLTISRLEPEDSAVYYCQQYGYSPLYTFGQGTK
scFv: B1 scFv
notes: The Fab region of one arm of the IgG is replaced by the anti-CD3 scFv; knob-in-hole and LALA mutations in the Fc; also called 1D2 bi-specific
B4: anti-GPC-3 bi-specific T cell-engaging antibody clone 2B5 (bispecific antibody)
VH: QVQLQESGGGVVQPGRSLRLSCAASGFTFSSYAMHWVRQAPGKGLEWVAVISYDGSNKYYADSVKGRFTISRDNSKNTLYLQMNSLRAEDTAVYYCAKEGTYYYDSSGYWDYYYGMDVWGQGTT
VL: DVVMTQSPLSLPVTPGEPASISCRSSQSLLDSDGYNFLDWYVQKPGQSPQRLIYLGSIRASGVPDRFSGSGSGTDFTLKISRVEADDVGVYYCMQALQTPWTFGQGTK
scFv: B1 scFv
notes: The Fab region of one arm of the IgG is replaced by the anti-CD3 scFv; knob-in-hole and LALA mutations in the Fc; also called 2B5 bi-specific
B5: anti-GPC-3 bi-specific T cell-engaging antibody clone 4H1 (bispecific antibody)
VH: EVQLVQSGGGVVQPGRSLRLSCAASGFTFSSYAMHWVRQAPGKGLEWVAVISYDGSNKYYADSVKGRFTISRDNSKNTLYLQMNSLRAEDTAVYYCARAPGLEDYWGQGTL
VL: DIQMTQSPSSLSASVGDRVTITCRASQSISSYLNWYQQKPGTAPKLLIYAASSSLQSGVPSRFSGSGSGTDFALTISSLQPEDFATYYCLQDYNYPLTFGGGTK
scFv: B1 scFv
notes: The Fab region of one arm of the IgG is replaced by the anti-CD3 scFv; knob-in-hole and LALA mutations in the Fc; also called 4H1 bi-specific
B6: anti-GPC-3 IgG1 clone 5C4 (antibody, V domains shown)
VH: B2 VH
VL: B2 VL
notes: Tested as IgG1; also called monoclonal antibody 5C4
B7: humanized GC33 IgG1 (antibody, V domains shown)
VH: QVQLVESGAEVKKPGASVKVSCKASGYTFTDYEMHWVRQAPGQGLEWMGALDPKTGDTAYSQKFKGRVTITADESTSTAYMELSSLRSEDTAVYYCARFYSYTYWGQGTLVTVSS
VL: DVVMTQSPLSLPVTPGEPASISCRSSQSLVHSNGNTYLHWYLQKPGQSPQLLIYKVSNRFSGVPDRFSGSGSGTDFTLKISRVEAEDVGVYYCSQNTHVPPTFGQGTKLEIK
B8: anti-GPC-3 IgG1 clone 1D8 (antibody, V domains shown)
VH: QVQLVQSGAEVKKPGASVKVSCKASGYTFTSYGISWVRQAPGQGLEWMGWISAYNGNTNYAQKLQGRVTMTTDTSTSTAYMELRSLRSDDTAVYYCARDGGLIAAAFGYYYYGMDVWGQGTT
VL: EIVLTQSPGTLSLSPGERATLSCRASQSVSSYLAWYQQKPGQAPRLLIYGASSRATGIPDRFSGSGSGTDFTLTISRLEPEDFAVYYCQQYERPPTFGGGTK
notes: Tested as IgG1; also called monoclonal antibody 1D8
B9: anti-GPC-3 IgG1 clone 1F1 (antibody, V domains shown)
VH: QVQLVQSGAEVKKPGASVKVSCKASGYTFTSYGISWVRQAPGQRLEWMGWINAGNGNTKYSQKFQGRVTITRDTSASTAYMELSSLRSEDTAVYYCATVVYWGQGTL
VL: EIVLTQSPLSLPVTPGEPASISCRSSQSLLHSNGYNYLDWYLQKPGQSPQILIYLGSHRASGVPDRFSGSASGTDFTLKISRVEAEDVGVYYCMQALQTPLTFGGGTK
notes: Tested as IgG1; also called monoclonal antibody 1F1
B10: anti-GPC-3 IgG1 clone 1H1 (antibody, V domains shown)
VH: QVQLQESGAGLLRPSETLSLTCAVYGGSFSGYYWSWIRQPPGKGLEWLGEISHSGSTNYNPSLKSRVTISVDTSKNQFSLKLSSVTAADAAVYYCARWVWSGYYNGEGYFDLWGRGTL
VL: ETTLTQSPGTLSLSPGERATLSCRASQSVSSSYLAWYQQKPGQAPRLLIYGASSRATGIPDRFSGRGSGTDFTLTITRLEPEDFAVYYCQYYGSSPRTFGQGTK
notes: Tested as IgG1; also called monoclonal antibody 1H1

Tests used:
[1] = molecular target: T1, human CD3 on human T cells (human, UniProt P07766 23-207); test: flow cytometry on human T cells (CD3 Positive), % positive cells
T1 construct: whole, on cells; CD3 is a complex of several chains on T cells; also called CD3^Positive human T cells
Method: (§1) The ability of these anti-GPC-3 bi-specific T cell-engaging antibodies to specifically recognize and bind to both GPC-3 and human CD3 molecules on cell surface was measured using HepG2 (GPC-3^Positive), SK-Hep1 (GPC-3^Negative), and human T cells (CD3^Positive) cells.
(§2) Briefly, HepG2 (GPC-3^Positive), SK-Hep1 (GPC-3^Negative) and human T cells (CD3^Positive) were seeded in cell suspension at 100000 per well in 96-well round-bottom plate prior to incubation with different concentrations of anti-GPC-3 bi-specific T cell-engaging antibodies. Binding was measured by flow cytometry using a secondary labelled antibody. In this assay, all 5 anti-GPC-3 bi-specific T-cell engaging antibodies bound strongly to the GPC-3 expressing cell HepG2 (FIG. 8B) as well as human T cells expressing CD3 (FIG. 8D).

[2] = molecular target: T2, human GPC-3 on the surface of HepG2 and Hep3B cells (human, UniProt P51654 25-554); test: flow cytometry on HepG2 (GPC-3 Positive) cells, % positive cells
T2 construct: whole, on cells; Endogenous GPC-3 of human hepatoma cell lines; also called GPC-3 expressing HepG2 cells; GPC-3^High HepG2
Method: as §1, §2

[3] = molecular target: T2, human GPC-3 on the surface of HepG2 and …; test: flow cytometry on HepG2 (GPC-3 Positive) cells, mean-APC
Method: as §1, §2

[4] = molecular target: T3, recombinant human GPC-3 protein (human, UniProt P51654 25-559, limits assumed); test: binding ELISA with biotin-hGPC-3, EC50 calculated from the curves of FIG. 1A to 1C
T3 construct: also called glypican-3; recombinant GPC-3 protein

[5] = molecular target: T3, recombinant human GPC-3 protein; test: SPR, Biacore T200
Method: Affinity of 24 anti-GPC-3 IgG₁ antibodies was measured via Surface Plasmon Resonance (SPR) analysis using Biacore™ T200 system and shown in Table E3 (below).

[6] = molecular target: T2, human GPC-3 on the surface of HepG2 and …; test: flow cytometry on Hep3B (GPC-3 Medium) cells, MFI against antibody (pM)
Method: (§3) The ability of anti-GPC-3 antibodies to specifically recognize and bind GPC-3 on the surface of cells was measured using HepG2 (GPC-3^High), Hep3B (GPC-3^Medium) and SK-Hep1 (GPC-3^Negative) cells.
(§4) Briefly, HepG2 (GPC-3^High), Hep3B (GPC-3^Medium) and SK-Hep1 (GPC-3^Negative) cells were seeded in cell suspension at 50000 per well in 96-well round-bottom plate before incubation with different concentrations of anti-GPC-3 antibodies. Binding was measured by flow cytometry using a secondary labelled antibody.

[7] = molecular target: T2, human GPC-3 on the surface of HepG2 and …; test: flow cytometry on HepG2 (GPC-3 High) cells, MFI against antibody (pM)
Method: as §3, §4

[8] = molecular target: T3, recombinant human GPC-3 protein; test: binding ELISA with biotin-hGPC-3, EC50 calculated from the curves of FIG. 1A to 1C; footnote: * Average value from 3 batches
[9] = molecular target: T2, human GPC-3 on the surface of HepG2 and …; test: flow cytometry on HepG2 (GPC-3 High) cells, MFI against antibody (pM); remark: listed apart in the source
[10] = molecular target: T3, recombinant human GPC-3 protein; test: binding ELISA, absorbance 450nm-570nm against Biotin-hGPC-3 (nM), batch of FIG. 1B
[11] = molecular target: T3, recombinant human GPC-3 protein; test: binding ELISA, absorbance 450nm-570nm against Biotin-hGPC-3 (nM), batch of FIG. 1A
[12] = molecular target: T3, recombinant human GPC-3 protein; test: binding ELISA, absorbance 450nm-570nm against Biotin-hGPC-3 (nM), batch of FIG. 1C
[13] = molecular target: T4, recombinant mouse GPC-3 protein (mouse, UniProt Q8CFZ4 25-558, limits assumed, biotinylated (sites not given)); test: cross-reactivity binding ELISA with biotinylated recombinant GPC-3, absorbance 450nm-570nm
T4 construct: Biotinylated for the cross-reactivity ELISA; also called mouse homolog of GPC-3 protein

[14] = molecular target: T5, mouse GPC-3 on the surface of transduced cells (Hepa1-6-mGPC-3, MC38-mGPC-3) (mouse, UniProt Q8CFZ4 25-553); test: flow cytometry histograms, 20 nM antibody, Hepa1-6-mGPC-3 against parental Hepa1-6 cells
T5 construct: whole, on cells
T5 sequence (Q8CFZ4 25-553 limits assumed): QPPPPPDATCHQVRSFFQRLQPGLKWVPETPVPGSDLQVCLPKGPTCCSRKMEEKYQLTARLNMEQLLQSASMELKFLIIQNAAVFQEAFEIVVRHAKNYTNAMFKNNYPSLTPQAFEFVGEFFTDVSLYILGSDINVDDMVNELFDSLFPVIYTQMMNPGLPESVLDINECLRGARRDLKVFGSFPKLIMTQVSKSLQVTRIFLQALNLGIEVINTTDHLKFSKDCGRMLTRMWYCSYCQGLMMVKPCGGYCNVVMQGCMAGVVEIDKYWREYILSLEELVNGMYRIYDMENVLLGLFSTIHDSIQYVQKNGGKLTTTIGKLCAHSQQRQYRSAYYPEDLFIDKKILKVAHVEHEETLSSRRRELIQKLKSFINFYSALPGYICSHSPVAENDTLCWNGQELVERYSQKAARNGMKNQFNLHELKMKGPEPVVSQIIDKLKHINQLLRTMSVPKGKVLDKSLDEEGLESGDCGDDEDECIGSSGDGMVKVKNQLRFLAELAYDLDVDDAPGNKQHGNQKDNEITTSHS

T4 sequence (Q8CFZ4 25-558 limits assumed): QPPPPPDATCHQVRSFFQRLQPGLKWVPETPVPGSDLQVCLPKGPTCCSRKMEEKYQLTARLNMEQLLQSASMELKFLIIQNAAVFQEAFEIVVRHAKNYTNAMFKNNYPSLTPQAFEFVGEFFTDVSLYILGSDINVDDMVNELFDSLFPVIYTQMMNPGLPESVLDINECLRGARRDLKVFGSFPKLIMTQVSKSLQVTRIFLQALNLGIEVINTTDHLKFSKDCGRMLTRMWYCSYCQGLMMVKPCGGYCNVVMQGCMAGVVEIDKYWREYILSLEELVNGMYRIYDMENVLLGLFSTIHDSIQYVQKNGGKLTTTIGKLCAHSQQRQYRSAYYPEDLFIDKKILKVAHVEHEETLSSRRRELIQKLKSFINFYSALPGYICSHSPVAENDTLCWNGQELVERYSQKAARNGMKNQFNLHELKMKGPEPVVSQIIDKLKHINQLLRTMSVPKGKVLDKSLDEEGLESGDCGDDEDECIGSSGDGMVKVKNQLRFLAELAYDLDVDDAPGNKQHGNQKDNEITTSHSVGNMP

Binder | EC50 (read off the curve) [1] [nM] | EC50 (read off the curve) [2] [nM] | EC50 [4] [nM] | Kd [5] [nM] | koff [5] [s⁻¹] | kon [5] [M⁻¹ s⁻¹] | further results
B1 | ~200 | ~10 | – | – | – | – | EC50 (read off the curve) [3]: ~700 nM
B2 | ~100 | ~20 | – | – | – | – | EC50 (read off the curve) [3]: ~800 nM
B3 | ~300 | ~70 | – | – | – | – | –
B4 | ~400 | ~100 | – | – | – | – | –
B5 | ~300 | ~100 | – | – | – | – | –
B6 | – | – | 0.348 | 9.02 | 0.00161 | 179000 | EC50 (read off the curve) [6]: ~0.04 nM; EC50 (read off the curve) [7]: ~0.1 nM
B7 | – | – | – | – | – | – | EC50 [8]: 0.803 nM; EC50 (read off the curve) [9]: ~0.8 nM; EC50 (read off the curve) [10]: ~0.9 nM; EC50 (read off the curve) [11]: ~0.4 nM; EC50 (read off the curve) [7]: ~0.7 nM; EC50 (read off the curve) [12]: ~1 nM
B8 | – | – | 9.01 | 13.7 | 0.0053 | 388000 | binding result [13]: no binding; binding result [14]: no binding (tested: 20 nM)
B9 | – | – | 10.6 | 13.8 | 0.00552 | 399000 | –
B10 | – | – | 5.42 | 33.9 | 0.00596 | 176000 | –
